Experimental data as given in patent US20100041597A1, “PEPTIDES TARGETED TO PROTEIN KINASE C ISOFORMS AND USES THEREOF” (priority 2005, published 2010).

Biological target: PKC-δ (Homo sapiens, UniProt Q05655)
Assay: Competitive binding assay using cell extracts (Western blot)
Parameters: cytoplasmic extracts from different cell lines expressing appropriate PKC isoforms; endogenous in cells; host or cells: H661, MDAMB231, LS180, T24 (human, from ATCC); key to Affinity for PKC isoform δ: —: no detectable affinity; Low to very low affinity at 10X or 20X or both PRE concentrations in at least one cell line in the cell extract assay; Low affinity in purified isoform assay.; Moderate affinity at 10X or 20X or both PRE concentrations in at least one cell line in the cell extract assay.; High affinity at 10X or 20X or both PRE concentrations in at least one cell line in the cell extract assay; High affinity in purified isoform assay
Details: Cell extract; PRE at 10X, 20X antibody concentration; Table 20
Experimental: Binding efficiency and specificity of the peptides PRE 2, 3, 4, 5, 6, 7, 8, 9, 10, 11, 12 and 13 (see Table 3) was also tested using cytoplasmic extracts from different cell lines expressing appropriate PKC isoforms as described for Example 1. Briefly, the protein cytoplasmic extracts were separated by electrophoresis and transferred onto nitrocellulose membranes by standard Western blotting procedures. The bands on the Western blots were detected with matching primary antibodies and alkaline phosphatase conjugated secondary antibody. The bands were then scanned and the relative density measurements obtained.
This procedure to assess the binding characteristics of the PREs is based on competition binding of the PRE with the primary anti-isoform PKC specific antibodies. The lower the measured band density, the greater the binding of the PRE to the PKC isoform. The PREs were added at 10 and 20 times (10×, 20×) the primary antibody concentration, according to classical competition between antigenic peptide and primary antibody. The following cell lines (obtained from the ATCC) were used: H661—NCI human lung carcinoma NSCLC; MDAMB231—human highly invasive breast cancer cell line from pleural effusion; LS180—human colon adenocarcinoma; LnCAP—human prostate adenocarcinoma; CCD16Lu—human lung fibroblasts; Du145—human prostate carcinoma brain metastasis, and T24—human bladder carcinoma.
In these cases, the 20× band density figures relative to control and 10× values were reliable.

Chain of PKC-δ (Q05655 whole entry): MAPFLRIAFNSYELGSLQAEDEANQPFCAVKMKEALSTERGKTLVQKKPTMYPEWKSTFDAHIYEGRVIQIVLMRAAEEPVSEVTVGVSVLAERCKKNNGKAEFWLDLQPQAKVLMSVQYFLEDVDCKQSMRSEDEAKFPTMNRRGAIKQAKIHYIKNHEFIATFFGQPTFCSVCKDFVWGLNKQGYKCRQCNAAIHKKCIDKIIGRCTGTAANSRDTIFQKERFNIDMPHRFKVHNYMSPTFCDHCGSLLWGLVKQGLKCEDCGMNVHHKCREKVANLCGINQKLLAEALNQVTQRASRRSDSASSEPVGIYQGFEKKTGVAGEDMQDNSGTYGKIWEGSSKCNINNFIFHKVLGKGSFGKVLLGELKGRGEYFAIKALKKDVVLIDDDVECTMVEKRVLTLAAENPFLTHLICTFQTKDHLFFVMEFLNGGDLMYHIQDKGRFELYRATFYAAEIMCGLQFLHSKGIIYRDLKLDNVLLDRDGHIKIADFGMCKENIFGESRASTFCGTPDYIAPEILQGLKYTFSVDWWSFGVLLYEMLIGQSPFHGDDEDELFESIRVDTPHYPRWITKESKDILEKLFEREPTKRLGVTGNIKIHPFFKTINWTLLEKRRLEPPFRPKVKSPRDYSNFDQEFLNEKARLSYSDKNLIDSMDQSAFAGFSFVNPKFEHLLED

Substance	Affinity for PKC isoform δ
Ac-AKGIQEVKGGDAQNLIGISI-NH2 [PRE 3]	H
Ac-AKGIQEVKGGKDAQNLIGISI-NH2 [PRE 5]	—
Ac-ISIGILNQADK-NH2 [PRE 10]	H
Ac-ISIGILQNADK-NH2 [PRE 7]	L
Ac-KDANQLIGISI-NH2 [PRE 6]	M/H
Ac-KDAQNLI-NH2 [PRE 12]	—
Ac-KDAQNLIGISI-NH2 [PRE 4, Ac-KDAQNLIGISI-NH2]	—
Ac-RDAQNLI-NH2 [PRE 13]	—
Ac-RDAQNLIGISI-NH2 [PRE 11]	—
Ac-isigilgnadk-NH2 [PRE 9]	H
ILEDKGGDAQNLIGISI [PRE 8]	L
RRKKGGKDFVVKR [PRE 1]	—

Same assay, conditions: cell extracts

Substance	affinity for PKC-δ
Ac-KDAQNLIGISI-NH2 [PRE 4, Ac-KDAQNLIGISI-NH2]	none for PKC-6
